Publication PMC4605657, “Interaction between TATA-Binding Protein (TBP) and Multiprotein Bridging Factor-1 (MBF1) from the Filamentous Insect Pathogenic Fungus Beauveria bassiana” (PLoS ONE, 2015)

Target: T1, Beauveria bassiana TATA-binding protein (BbTBP) (Beauveria bassiana, UniProt J4W563 1-253)
T1 construct: open reading frame amplified with primers PTBP-F/PTBP-R and cloned EcoRI/HindIII into pET28a; the forward primer begins at the codon after the start methionine (GAG GGC ATT ...), the reverse primer holds the stop codon; also called BbTBP1; source: E. coli Rosetta DE3, purified (Ni- or Co-NTA agarose)
T1 sequence: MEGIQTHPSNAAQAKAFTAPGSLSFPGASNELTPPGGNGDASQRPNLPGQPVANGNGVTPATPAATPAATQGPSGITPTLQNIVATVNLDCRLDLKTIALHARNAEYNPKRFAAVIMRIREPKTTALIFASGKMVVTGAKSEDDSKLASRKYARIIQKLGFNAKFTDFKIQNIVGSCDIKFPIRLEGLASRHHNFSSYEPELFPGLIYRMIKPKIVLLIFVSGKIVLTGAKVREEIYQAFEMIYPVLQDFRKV
Test: native gel or EMSA; super-shift on 6% non-denaturing PAGE; BbTBP 1129 nM and BbMBF1 855 nM with TATA-containing oligonucleotide (TATA^C 16.8 nM or TATA^P 18.3 nM); 30 min at 37°C; 60 mM KCl, 20 mM Tris pH 7.9, 5.0 mM MgCl2, 10 mM dithiothreitol, 0.2 mg/ml BSA, 10% glycerol; nucleic acid and protein stain
Conditions: both partners purified

B1: Beauveria bassiana multiprotein bridging factor 1 (BbMBF1) (natural protein)
chain: not shown
notes: Multiprotein bridging factor 1 of Beauveria bassiana, locus tag BBA_01830, 153 amino acids; open reading frame amplified with primers PMBF1-F/PMBF1-R and cloned EcoRI/HindIII into pET28a; the forward primer begins at the codon after the start methionine (TCT GAC GAC ...), the reverse primer holds the stop codon; source: E. coli Rosetta DE3, purified (Ni- or Co-NTA agarose)
binding result: binds
